# B1: FcγRIIaR (receptor)
# chain: QAAAPPKAVLKLEPPWINVLQEDSVTLTCQGARSPESDSIQWFHNGNLIPTHTQPSYRFKANNNDSGEYTCQTGQTSLSDPVHLTVLSEWLVLQTPHLEFQEGETIMLRCHSWKDKPLVKVTFFQNGKSQKFSRLDPTFSIPQANHSHSGDYHCTGNIGYTLFSSKPVTITVQVPSMGSSSPMG
# B2: S267G (antibody)
# chain 1: not shown
# chain 2: DIVMTQSPATLSLSPGERATLSCRSSKSLQNVNGNTYLYWFQQKPGQSPQLLIYRMSNLNSGVPDRFSGSGSGTEFTLTISSLEPEDFAVYYCMQHLEYPITFGAGTKLEIKRTVAAPSVFIFPPSDEQLKSGTASVVCLLNNFYPREAKVQWKVDNALQSGNSQESVTEQDSKDSTYSLSSTLTLSKADYEKHKVYACEVTHQGLSSPVTKSFNRGEC
# B3: alemtuzumab, wild type, expressed in 293T cells (antibody)
# chain 1: not shown
# chain 2: not shown
# B4: alemtuzumab S239D (antibody)
# chain 1: not shown
# chain 2: not shown
# Legend:
# S267E/N325L = experiment: Biacore
# A327Q = experiment: Biacore
# H268D = experiment: Biacore
# A327G = experiment: Biacore
# H268N = experiment: Biacore
# H268E = experiment: Biacore
# H268Q = experiment: Biacore
# L328F = experiment: Biacore
# A327N = experiment: Biacore
# P329E = experiment: Biacore
# A327D = experiment: Biacore
# S267E/L328Y = experiment: Biacore
# S298D = experiment: Biacore
# FcγRIIb = target: T1, FcγRIIb (human, UniProt P31994 46-217); experiment: Biacore
# T1 chain: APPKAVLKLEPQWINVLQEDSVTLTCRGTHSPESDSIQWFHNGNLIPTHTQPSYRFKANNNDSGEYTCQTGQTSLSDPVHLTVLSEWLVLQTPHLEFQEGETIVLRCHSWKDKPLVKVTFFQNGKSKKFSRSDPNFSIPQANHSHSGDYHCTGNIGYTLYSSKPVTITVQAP
# FcγRI = target: T2, FcγRI (human, UniProt P12314 16-288); experiment: Biacore
# T2 chain: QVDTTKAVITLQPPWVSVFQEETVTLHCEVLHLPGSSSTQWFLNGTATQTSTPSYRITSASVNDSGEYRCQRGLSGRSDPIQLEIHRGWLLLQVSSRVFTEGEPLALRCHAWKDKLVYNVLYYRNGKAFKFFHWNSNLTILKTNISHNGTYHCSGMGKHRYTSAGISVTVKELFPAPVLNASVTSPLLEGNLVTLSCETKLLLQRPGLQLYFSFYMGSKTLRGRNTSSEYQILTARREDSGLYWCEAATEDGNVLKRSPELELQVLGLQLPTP
# [1] = target: human V158 FcγRIIIa, extracellular region with C-terminal 6xHis-tag and GST-tag (human, UniProt P08637 17-208); experiment: AlphaScreen competition
binder,measurement,setting,value
B1,Kd,S267E/N325L,0.0207 µM
same,Kd,A327Q,1.35 µM
same,Kd,H268D,0.205 µM
same,Kd,A327G,2.69 µM
same,Kd,H268N,0.481 µM
same,Kd,H268E,0.269 µM
same,Kd,H268Q,0.544 µM
same,Kd,L328F,0.166 µM
same,Kd,A327N,1.41 µM
same,Kd,P329E,10 µM
same,Kd,A327D,0.536 µM
same,Kd,S267E/L328Y,0.00706 µM
same,Kd,S298D,0.592 µM
B2,Kd,FcγRIIb,1.45 µM
same,Kd,FcγRI,0.000626 µM
B3,IC50,[1],0.0046 µM
B4,IC50,[1],0.0004 µM

# Reference: patent publication US20090042291A1 (published 2009)
